Molecular target: CD38 (UniProt P28907)
Assay: cell-based or functional assay

Substance daratumumab (antibody) has a reduction in detectable CD38+ pbNK cell counts against the control condition of 21 fold.

From patent US20230357716A1
